The text below walks through data of publication PMC4990313 (ACS Catalysis, 2013).

The data set concerns the molecule itself. Briefly: crystal structure; sitting drop vapor diffusion at 20 °C, 100 mM KH2PO4/citrate pH 4.0-5.0, PEG 300 35-50%; holo, NADP(H)-soaked (binary) and NADP+ + HMCA-soaked (ternary) crystals; dimer interface analysed with PISA.

B1: double bond reductase from Nicotiana tabacum (NtDBR) (enzyme, UniProt Q9SLN8 1-343, looked up)
chain: MAEEVSNKQVILKNYVTGYPKESDMEIKNVTIKLKVPEGSNDVVVKNLYLSCDPYMRSRMRKIEGSYVESFAPGSPITGYGVAKVLESGDPKFQKGDLVWGMTGWEEYSIITPTQTLFKIHDKDVPLSYYTGILGMPGMTAYAGFHEVCSPKKGETVFVSAASGAVGQLVGQFAKMLGCYVVGSAGSKEKVDLLKSKFGFDEAFNYKEEQDLSAALKRYFPDGIDIYFENVGGKMLDAVLVNMKLYGRIAVCGMISQYNLEQTEGVHNLFCLITKRIRMEGFLVFDYYHLYPKYLEMVIPQIKAGKVVYVEDVAHGLESAPTALVGLFSGRNIGKQVVMVSRE
By stoichiometry N is commonly meant a count of units in the complex or per binding partner. Take B1: the “stoichiometry N” value came to 2.
